Source: patent US20110189209A1 (GOVERNMENT OF THE UNITED STATES OF AMERICA AS REPRESENTED …, published 2011)

Key:
[1] = target: human CD3 on Jurkat cells (human) (UniProt P07766); experiment: competitive binding on Jurkat cells, competitor at 100 nM, tracer 125I-UCHT1
[2] = target: human CD3 on Jurkat cells (human) (UniProt P07766); experiment: competitive binding on Jurkat cells, competitor at 1 nM, tracer 125I-UCHT1
[3] = target: T1, monkey CD3 on HSC-F monkey T cells (cynomolgus monkey, UniProt Q95LI5 22-198); experiment: competition with FITC-labeled FN18 tracer (5x10^-9 M) for binding to HSC-F monkey T cells, flow cytometry, 4 C
T1 construct: whole, on cells; also called monkey CD3ε
T1 sequence (Q95LI5 22-198): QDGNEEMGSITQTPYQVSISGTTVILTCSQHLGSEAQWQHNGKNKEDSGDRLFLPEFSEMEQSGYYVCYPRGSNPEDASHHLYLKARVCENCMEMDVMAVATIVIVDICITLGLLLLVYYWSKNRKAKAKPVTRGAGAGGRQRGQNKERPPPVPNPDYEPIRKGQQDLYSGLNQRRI

[4] = target: T1, monkey CD3 on HSC-F monkey T cells; experiment: competition with FN18-FITC on HSC-F cells, flow cytometry, replicate assays

Row | Molecule | % of 125I-UCHT1 bound to Jurkat cells [1] [%] | % of 125I-UCHT1 bound to Jurkat cells [2] [%] | further results
1 | scUCHT1 (from UniProt P01871 106-453) (Fc fusion) | 0 | 80 | –
2 | UCHT1 (antibody) | 0 | 80 | –
3 | scFv(C207) (scFv) scFv: DFVMSQSPSSLAVSVGERVTMSCKSSQSLLYFSNRKNYLAWYQQKPGQSPKLLINWASTRESGVPDRFTGSGSRTDFTLTISSVKAEDLAVYFCQQFYSYPPTFGGGTKLEIKGGGGSGGGGSGGGGSQVQLQQSEAELARPGASVKMSCKASGYTFTDYTIHWLRQKPGQGLDWIGYFNPSSGSTEYNRKFKDRTILTADRSSTTVYMQLSSLTSEDSAVYYCARKGEKLLGNRYWYFDVWGAGTSVTVSS | – | – | IC50 (read off the curve) [3]: ~2 nM
4 | Db(C207) (other, also called diabody of C207; diabody (C207)) DFVMSQSPSSLAVSVGERVTMSCKSSQSLLYFSNRKNYLAWYQQKPGQSPKLLINWASTRESGVPDRFTGSGSRTDFTLTISSVKAEDLAVYFCQQFYSYPPTFGGGTKLEIKGGGGSQVQLQQSEAELARPGASVKMSCKASGYTFTDYTIHWLRQKPGQGLDWIGYFNPSSGSTEYNRKFKDRTILTADRSSTTVYMQLSSLTSEDSAVYYCARKGEKLLGNRYWYFDVWGAGTSVTVSS | – | – | ratio of concentrations at equal displacement, Db(C207)/scFv(C207) [4]: 7 fold
5 | biscFv(C207) (other) DFVMSQSPSSLAVSVGERVTMSCKSSQSLLYFSNRKNYLAWYQQKPGQSPKLLINWASTRESGVPDRFTGSGSRTDFTLTISSVKAEDLAVYFCQQFYSYPPTFGGGTKLEIKGGGGSGGGGSGGGGSQVQLQQSEAELARPGASVKMSCKASGYTFTDYTIHWLRQKPGQGLDWIGYFNPSSGSTEYNRKFKDRTILTADRSSTTVYMQLSSLTSEDSAVYYCARKGEKLLGNRYWYFDVWGAGTSVTVSSGGGGSGGGGSGGGGSDFVMSQSPSSLAVSVGERVTMSCKSSQSLLYFSNRKNYLAWYQQKPGQSPKLLINWASTRESGVPDRFTGSGSRTDFTLTISSVKAEDLAVYFCQQFYSYPPTFGGGTKLEIKGGGGSGGGGSGGGGSQVQLQQSEAELARPGASVKMSCKASGYTFTDYTIHWLRQKPGQGLDWIGYFNPSSGSTEYNRKFKDRTILTADRSSTTVYMQLSSLTSEDSAVYYCARKGEKLLGNRYWYFDVWGAGTSVTVSS | – | – | ratio of concentrations at equal displacement, biscFv(C207)/scFv(C207) [4]: 2.5 fold
